Molecular target: T1, ASAP1 SH3 domain (aa. 1083–1147) (mouse, UniProt Q9QWY8 1083-1147)
T1 sequence (looked up): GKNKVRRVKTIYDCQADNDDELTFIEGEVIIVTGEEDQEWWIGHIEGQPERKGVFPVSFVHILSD
Assay: ITC

Binder | Kd | fold weakening of the interaction against the wild-type gAnkB peptide | other results
IPPDETQSTQKQHKPSLGIKKPVRRKLKEKQKQKEEGLQASAEKAELKKG (domain or fragment, human, UniProt Q01484 1682-1731, looked up) [gAnkB (aa. 1682–1731)] | ~140 nM |  | 
GIKKPVRRKLKE (peptide, UniProt Q01484 1699-1710, looked up) [12-residue peptide derived from gAnkB (aa. 1699–1710)] | ~190 nM |  | 
GIKKGVRRKLKE (peptide, UniProt Q01484 1699-1710, looked up) [gAnkB peptide P1703G] |  |  | fold decrease of the binding affinity against the wild-type gAnkB peptide: ~3 fold
GIKEPVRRKLKE (peptide, UniProt Q01484 1699-1710, looked up) [gAnkB peptide K1702E] |  | ~264 fold | 
GIKKPVERKLKE (peptide, UniProt Q01484 1699-1710, looked up) [gAnkB peptide R1705E] |  | ~105 fold | 
